Results on three molecules are retold here after US20210355205A1 (published 2021).

Assay [1] concerns the target recombinant human IL-5 (human, UniProt P05113 20-134). Put plainly: Biacore, Ab on Protein A chip.
The target is the same in assay [2]. Briefly: Biacore.
In another assay the target is Cynomolgus IL-5 (cynomolgus monkey). Briefly: cell-based or functional assay.

B1: 3A5.211 (antibody, human IgG4 S228P, lambda, name in Kabat numbering, V domains shown)
VH: QVQLQESGPGLVKPSQTLSLTCTVSGGSISNGGYYWSWIRQHPGKGLEWIGYIYYSGSTYYNPSLKSRVTISVDTSKNQFSLKLSSVTAADTAVYYCASLGNWFDYWGQGTLVTVSS
VL: SYVLTQPPSVSVAPGQTARITCGGNNIGSKNVYWYQQKPGQAPVLVVHDDSDRPSGIPERFSGSNSGNTATLTISRVEVGDEADYSCQAWDSSSDHVVFGGGTKLTVLG
With B1, the “proportional kd vs parent 3A5.040” value with recombinant human IL-5 [1] is 1 ratio.

B2: 3A5.508 (antibody, human IgG4 S228P, lambda, name in Kabat numbering, V domains shown)
VH: QVQLQESGPGLVKPSQTLSLTCTVSGGSISNGGYYWSWIRQHPGKGLEWIGYIYYSGSTYYNPSLKSRVTISVDTSKNQFSLKLSSVTAADTAVYYCASLANWFDYWGQGTLVTVSS
VL: SYVLTQPPSVSVAPGQTARITCGGNNIGSKNVYWYQQKPGQAPVLVVHDDSDRPSGIPERFSGSNSGNTATLTISRVEVGDEADYSCQVWDSSSDHVVFGGGTKLTVLG
Regarding B2, the “proportional kd vs parent 3A5.040” value in the assay with recombinant human IL-5 [2] amounted to 0.8.

B3: 3A5.046 (antibody, human IgG4 S228P, lambda)
heavy: QVQLQESGPGLVKPSQTLSLTCTVSGGSISNGGYYWSWIRQHPGKGLEWIGYIYYSGSTYYNPSLKSRVTISVDTSKNQFSLKLSSVTAADTAVYYCASLGNWFDYWGQGTLVTVSSASTKGPSVFPLAPCSRSTSESTAALGCLVKDYFPEPVTVSWNSGALTSGVHTFPAVLQSSGLYSLSSVVTVPSSSLGTKTYTCNVDHKPSNTKVDKRVESKYGPPCPPCPAPEFLGGPSVFLFPPKPKDTLYITREPEVTCVVVDVSQEDPEVQFNWYVDGVEVHNAKTKPREEQFNSTYRVVSVLTVLHQDWLNGKEYKCKVSNKGLPSSIEKTISKAKGQPREPQVYTLPPSQEEMTKNQVSLTCLVKGFYPSDIAVEWESNGQPENNYKTTPPVLDSDGSFFLYSRLTVDKSRWQEGNVFSCSVMHEALHNHYTQKSLSLSLG
light: SYVLTQPPSVSVAPGQTARITCGGNNIGSKNVYWYQQKPGQAPVLVVHDDSDRPSGIPERFSGSNSGNTATLTISRVEVGDEADYSCQVWDSSSDHVVFGGGTKLTVLGQPKAAPSVTLFPPSSEELQANKATLVCLISDFYPGAVTVAWKADSSPVKAGVETTTPSKQSNNKYAASSYLSLTPEQWKSHRSYSCQVTHEGSTVEKTVAPTECS
Take B3: the “Mean (pM): mean IC50, TF-1.6G4 cell line proliferation assay” value with Cynomolgus IL-5 stood at 43.8 pM.
